Results from patent US8440788B2, “N-terminal VDAC variants and uses thereof” (Ben-Gurion University of The Negev Research and Development …, priority 2006, dated 2013).
Each block holds one molecule with its values, some of them ahead of it.

Experiments:
[1] = tested on: hVDAC1-shRNA-T-REx-293 cells; experiment: Apoptosis induced by various stimuli in cells expressing native or truncated mVDAC1; assay type: cell-based, human; conditions: for cell death in cells expressing native mVDAC1: hVDAC1-shRNA-T-REx-293 cells expressing mVDAC1
Experimental: (§1) Apoptotic cell death was analyzed by Acridine Orange/Ethidium Bromide staining.
(§2) T-REx-293 cells correspond to a transformed primary human embryonal kidney cell line, expressing the tetracycline repressor. hVDAC1-shRNA T-REx-293 cells stably expressing the pSUPERretro plasmid encoding shRNA targeting hVDAC1 were obtained and grown as described previously (Abu-Hamad et al. (2006), supra). […] Cell viability was analyzed by staining with acridine orange and ethidium bromide in PBS (Zaid et al. (2005). Cell death and differentiation, 12, 751-760). Images were recorded using Zeiss LSM510 confocal or Olympus IX51 fluorescence microscopes. Mitochondria preparation and measurements of ATP levels and Ca^+ accumulation were carried out as previously described (Abu-Hamad et al. (2006), supra).

HK-I [2] = target: T1, HK-I (Rattus norvegicus, UniProt P05708); experiment: Real time surface plasmon resonance, immobilized HK-I; assay type: binding; conditions: SPR, increasing peptide concentrations
T1 construct: Purified rat brain HK-I; from tissue; host or cells: rat brain
T1 sequence (P05708 1-918): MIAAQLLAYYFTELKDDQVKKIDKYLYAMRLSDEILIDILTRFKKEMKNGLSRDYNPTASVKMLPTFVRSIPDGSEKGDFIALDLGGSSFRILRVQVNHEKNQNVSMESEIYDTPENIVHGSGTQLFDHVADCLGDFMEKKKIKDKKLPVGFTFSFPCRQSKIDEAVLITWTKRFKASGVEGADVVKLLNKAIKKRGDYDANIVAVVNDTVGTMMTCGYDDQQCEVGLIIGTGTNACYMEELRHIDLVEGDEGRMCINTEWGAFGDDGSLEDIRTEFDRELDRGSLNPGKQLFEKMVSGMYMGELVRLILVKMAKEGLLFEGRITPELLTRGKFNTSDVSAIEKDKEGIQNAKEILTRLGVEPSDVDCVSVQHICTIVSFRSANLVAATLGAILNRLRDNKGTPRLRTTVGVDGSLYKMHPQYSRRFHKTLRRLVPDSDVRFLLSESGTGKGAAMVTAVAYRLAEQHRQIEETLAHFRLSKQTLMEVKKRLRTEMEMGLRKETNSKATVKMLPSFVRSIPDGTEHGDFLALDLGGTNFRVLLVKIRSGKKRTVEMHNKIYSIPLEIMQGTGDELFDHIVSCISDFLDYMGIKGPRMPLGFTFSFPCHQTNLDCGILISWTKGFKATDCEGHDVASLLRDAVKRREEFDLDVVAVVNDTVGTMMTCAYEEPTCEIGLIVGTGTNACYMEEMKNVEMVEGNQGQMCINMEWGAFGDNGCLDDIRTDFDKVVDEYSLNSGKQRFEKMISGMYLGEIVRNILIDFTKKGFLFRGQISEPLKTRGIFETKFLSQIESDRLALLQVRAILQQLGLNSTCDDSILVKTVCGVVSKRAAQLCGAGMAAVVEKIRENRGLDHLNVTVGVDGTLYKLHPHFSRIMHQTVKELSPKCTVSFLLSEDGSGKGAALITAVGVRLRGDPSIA
Experimental: (§3) Surface plasmon resonance (SPR) using the ProteOn-XPR36 (Bio-Rad, USA) system was employed to study the interaction of VDAC1 N-terminal peptides with purified HK-I and Bcl2. Purified rat brain HK-I, recombinant Bcl2 and rabbit IgG were immobilized on a CM5 sensor surface according to the manufacture's instructions. N-terminal VDAC1 peptides were diluted in running buffer (150 mM NaCl, 0.005% Tween-20, 4% (V/V) DMSO, 10 mM PBS, pH, 7.4) and injected onto the sensor chip at varying concentrations at a flow rate of 40 μl/min at 25° C.

Bcl2 = Bcl2 (Homo sapiens, UniProt P10415); experiment: Real time surface plasmon resonance, immobilized Bcl2; assay type: binding; conditions: SPR, increasing peptide concentrations
Experimental: as §3

IgG = experiment: Real time surface plasmon resonance, immobilized IgG (control); assay type: binding, rabbit; conditions: SPR control
Experimental: as §3

[3] = tested on: hVDAC1-shRNA-T-REx-293 cells; experiment: Restoration of cell growth in T-REx-293 cells silenced for hVDAC1; assay type: cell-based, human; conditions: expression under tetracycline control; Trypan-Blue counting
Experimental: as §2

[4] = Channel conductance of purified VDAC reconstituted into planar lipid bilayer; assay type: biochemical
Experimental: (§4) Briefly, PLB were prepared from soybean asolectin dissolved in n-decane (50 mg/ml) in a chamber containing 10 mM Hepes/KOH, pH 7.4 and 0.5 or 1M NaCl (cis/trans). Only PLBs with a resistance greater than 100 GΩ were used. Purified VDAC (about 1 ng) was added to the chamber defined as the cis side. After insertion of one or more channels into the PLB, excess protein was removed by perfusion of the cis chamber with 20 volumes of a same solution. Currents were recorded under voltage-clamp mode using a Bilayer Clamp amplifier (Warner Instruments, Hamden, Conn.). Currents were measured with respect to the trans side of the membrane (ground). The currents were low-pass filtered at 1 kHz, using a Bessal filter (Frequency Devices, Haverhill, Mass.) and digitized on-line using a Digidata 1200 interface board and pCLAMP 6 software (Axon Instruments). Sigma Plot 2000 scientific software was used for data analyses. Experiments were performed at 23-25° C.

[5] = tested on: T-REx-293 cells silenced for hVDAC1 expression; experiment: Cell death triggered by tetracycline-induced over-expression; assay type: cell-based, human; conditions: over-expression induced by 2.5 μg/ml tetracycline
Experimental: as §1, §2

[6] = tested on: hVDAC1-shRNA T-REx-293 cells; experiment: Cytochrome c release induced by staurosporine (STS); assay type: cell-based, human; conditions: STS (1.25 μM) for 5 h; Western blotting
HK-I [7] = target: T1, HK-I; experiment: Effect of HK-I on channel activity of bilayer-reconstituted VDAC1; assay type: biochemical; conditions: HK-I (28 mU/ml), voltage step 0 to +40 mV
Experimental: as §4

Chain of Bcl2 (P10415 whole entry, species assumed): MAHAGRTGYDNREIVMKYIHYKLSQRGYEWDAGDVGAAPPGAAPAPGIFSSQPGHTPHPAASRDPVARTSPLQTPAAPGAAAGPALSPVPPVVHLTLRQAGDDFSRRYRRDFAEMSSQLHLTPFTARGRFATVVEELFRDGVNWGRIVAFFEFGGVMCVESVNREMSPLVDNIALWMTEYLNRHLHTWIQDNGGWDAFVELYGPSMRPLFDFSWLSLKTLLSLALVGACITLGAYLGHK

Molecule: O=[As]O[As]=O (stereo not shown) [As2O3]
cell death in cells expressing native mVDAC1 [1]: induced death

Molecule: CN[C@@H]1C[C@H]2O[C@@](C)([C@@H]1OC)n1c3ccccc3c3c4c(c5c6ccccc6n2c5c31)C(=O)NC4 [Staurosporine]
cell death in cells expressing native mVDAC1 [1]: induced death

Molecule: COc1cc(/C=C/C(=O)CC(=O)/C=C/c2ccc(O)c(OC)c2)ccc1O [curcumin]
cell death in cells expressing native mVDAC1 [1]: induced death

binding to immobilized HK-I (HK-I [2]): did not interact
binding to immobilized Bcl2 (Bcl2): did not interact
Molecule: LP3: VDAC1-based peptide representing a loop (E157 to T174, 18 amino acids) predicted to face the intermembranal space (ETAKSRVTQSNFAVGYKT)

binding to immobilized HK-I (HK-I [2]): strongly bound
binding to immobilized Bcl2 (Bcl2): strongly bound
binding to IgG-immobilized chip (IgG): no signal
Molecule: VDAC1 N-terminal peptide: a peptide corresponding to the N-terminal region of VDAC1 (MAVPPTYADLGKSARDVFTKGYGFGL)

effect of HK-I on channel activity (HK-I [7]): no effect
B1: Δ(1-26)mVDAC1: N-terminal truncated mouse VDAC1 polypeptide lacking amino acids 1-26 (protein)
chain: IKLDLKTKSENGLEFTSSGSANTETTKVNGSLETKYRWTEYGLTFTEKWNTDNTLGTEITVEDQLARGLKLTFDSSFSPNTGKKNAKIKTGYKREHINLGCDVDFDIAGPSIRGALVLGYEGWLAGYQMNFETSKSRVTQSNFAVGYKTDEFQLHTNVNDGTEFGGSIYQKVNKKLETAVNLAWTAGNSNTRFGIAAKYQVDPDACFSAKVNNSSLIGLGYTQTLKPGIKLTLSALLDGKNVNAGGHKLGLGLEFQA
cell growth in cells silenced for hVDAC1 [3]: restored cell growth
maximal conductance ([4]; at 1M NaCl): 4 nS
voltage dependence of conductance ([4]; planar lipid bilayer, FIG. 4): no voltage dependence
cell death on over-expression [5]: continue to grow over 8 days
apoptotic cell death ([5]; over 8 days): 5-8%
sensitivity of expressing cells to induced apoptosis ([1]; curcumin (100 μM), As2O3 (60 μM) or STS (1.25 μM)): resistant
cytochrome c release into the cytosol [6]: no cytochrome c release
